Patent US20260209316A1 (US Dept. of Health and Human Services, published 2026)

Assays:
[1] = biological target: T1, full-length Sudan GP (GPFL) (Sudan virus (SUDV), UniProt Q7T9D9 33-650); experiment: BLI, Fab, pH 5.3
T1 construct: also called Sudan GPFL; GP(S)FL
T1 sequence: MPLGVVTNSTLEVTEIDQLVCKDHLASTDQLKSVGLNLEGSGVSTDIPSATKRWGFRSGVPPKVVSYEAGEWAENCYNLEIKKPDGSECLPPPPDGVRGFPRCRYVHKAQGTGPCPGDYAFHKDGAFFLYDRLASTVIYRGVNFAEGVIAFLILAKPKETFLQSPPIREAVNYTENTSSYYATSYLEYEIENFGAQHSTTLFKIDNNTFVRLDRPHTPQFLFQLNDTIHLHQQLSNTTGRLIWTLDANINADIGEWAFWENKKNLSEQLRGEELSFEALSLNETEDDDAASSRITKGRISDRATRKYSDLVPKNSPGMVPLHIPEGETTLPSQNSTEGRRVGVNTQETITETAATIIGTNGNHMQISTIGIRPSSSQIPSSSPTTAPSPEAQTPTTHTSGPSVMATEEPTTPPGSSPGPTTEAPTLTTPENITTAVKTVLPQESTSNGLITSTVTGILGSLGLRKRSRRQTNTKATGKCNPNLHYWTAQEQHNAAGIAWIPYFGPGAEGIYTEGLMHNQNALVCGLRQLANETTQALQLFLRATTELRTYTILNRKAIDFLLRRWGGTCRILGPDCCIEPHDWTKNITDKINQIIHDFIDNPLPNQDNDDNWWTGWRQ

[2] = biological target: T1, full-length Sudan GP (GPFL); experiment: BLI, Fab, pH 7.4
[3] = biological target: T1, full-length Sudan GP (GPFL); experiment: BLI, Fab, pH 7.4; remark: listed apart in the source
[4] = biological target: T1, full-length Sudan GP (GPFL); experiment: BLI, Fab, pH 5.3; remark: listed apart in the source

| Binder | Kd [1] [nM] | koff [1] [s⁻¹] | kon [1] [M⁻¹ s⁻¹] | Kd [2] [nM] | koff [2] [s⁻¹] | kon [2] [M⁻¹ s⁻¹] | Kd [3] [nM] | koff [3] [s⁻¹] | kon [3] [M⁻¹ s⁻¹] | Kd [4] [nM] | koff [4] [s⁻¹] | kon [4] [M⁻¹ s⁻¹] |
| --- | --- | --- | --- | --- | --- | --- | --- | --- | --- | --- | --- | --- |
| Fab generated from 523S (Fab, V domains shown, also called 523S Fab) VH: QVQLVQSGAELKKPGASVKVSCKASGYTFSDHYVHWVRQAPGQGLEWMGRINPNSGGTNYAQRFLGRVTMTRDASISTAYLDLSSLRSDDTAVYYCARSSSSWSGHYYYYMDVWGKGTTVTVSS VL: QSVLTQPPSVSAAPGQRVTISCSGSTSNIASNFVSWYQQLPGTAPKLLIYDNHKRPSGIPDRFSGSKSGTSATLGITGLQTGDEADYYCGTWDSSLSAGVFGGGTKVTVL | 1.58 | 0.000103 | 65400 | 1.61 | 0.000148 | 91900 |  |  |  |  |  |  |
| Fab generated from 203S (Fab, V domains shown, also called 203S Fab) VH: QVQLVQSGAEVKKPGSSVKVSCKASGGTFSSYAISWVRQAPGQGLEWLGRILPALGLANYAQKYQDRVKITADKSTSTAYMELSRLGSEDTAVYYCARDRWVGAARRGQYFDYWGQGTQVTVSS VL: DIQMTQSPATLSASVGDRVTITCRASQSIGTWLAWYQQKPGKAPKLLIYDASSLESGVPPRFSGSGSETEFTLTISSLQPDDFATYYCHQYKSYSYTFGQGTKLEIK |  |  |  |  |  |  | 26.1 | 0.000376 | 14400 | 118 | 0.00046 | 3880 |
| Fab generated from 315S (Fab, V domains shown, also called 315S Fab) VH: EVQLVESGGGVVQPGRSLRLSCAASGFTFKTYTMHWVRQAPGKGLEWVAVITDDGVNKKYADSVKGRFTISRDNSKNTLYLQMNSLRLEDTAVYYCARSVVVLAAYPLDYWGQGTMVTVSS VL: DIQMTQSPSSLSASVGDRVTITCRASQTISTYLHWYQQRPGKAPKLLIYAASSLQSGVPSRVSGSGSGTDFTLTITSLQPEDFATYYCLQTYSLPLTFGGGTNVEIK |  |  |  |  |  |  | 8.37 | 0.000303 | 36200 | 4.26 | 8.93e-05 | 21000 |
| Fab generated from 377S (Fab, V domains shown) VH: QVQLVQSGAEVKKPGSSVKVSCKASGGTFSNYAINWVRQAPGQGLEWMGRTIPFLGLTNYAENFQARVTITADKSTGTSYMQLSSLRSEDTAVYFCAKAATSGWSPFDNWGQGTLVTVSS VL: EIVLTQSPGTLSLSPGERATLSCRASQSISSSYFGWYQQKPGQAPRLLIYGASRRAAGIPDRFSCSGSGTDFTLTISRLEPEDFGVYYCQQYGSSPTFGQGTKVEIK |  |  |  |  |  |  | 36.7 | 0.000631 | 17200 | 63.7 | 0.000571 | 8970 |
| Fab generated from 528S (Fab, V domains shown, also called 528S Fab) VH: EVQLAESGGGVVQPGRSLRLSCAASGFTFNSYGMHWVRQAPGKGLEWVAVIWDDGSKKYYADSVKGRFTISRDNSKNTLFLQMNSLRAEDTAVYYCARETIMFTFGEVIVSSRDNYYMDVWGKGTTVTVSS VL: EIVLTQSPATLSLSPGERATLSCRASQSVSNYLAWYQQKPGQAPRLLIYDASTRAIGIPARFSGVGSGTDFTLTISSLEPEDFAVYYCQQRSNWPPLTFGGGTKVEIK |  |  |  |  |  |  | 9.11 | 0.000387 | 42500 | 5.58 | 4.65e-05 | 8330 |
| Fab generated from 338S (Fab, V domains shown) VH: EVQLVESGGGVVQPGRSLRLSCAASGFTFSQYGMHWVRQAPGKGLECVAVIWFDGSKKYYGDSVKGRFTISRDNSKNTLYLQMNSLRAEDTAVYFCARESLYYYDSGGHYYERGRIDYWGQGTLVTVSS VL: DIQMTQSPSSLSASVGDRVTITCRASQDISNFLAWFQQKPGKAPKSLIYAASSLLSGVPSKFSGSGSGTDFTLTISSLQPEDFATYYCQQYNSYPPTFGQGTKLEIK |  |  |  |  |  |  | 27.4 | 0.000632 | 23100 | 23.7 | 0.000418 | 17600 |
| Fab generated from 335S (Fab, V domains shown, also called 335S Fab) VH: EVQLVESGGGVVQPGRSLRLSCAASGFSFSNYAMHWVRQAPGKGLEWVAVTWYDGSSKYHADSVKGRFTISRDNSKNTLYLQMNSLRAEDTAVYYCARWGMGIVASPGNVLNYYYFMDVWGQGTTVIVSS VL: SYELTQPPSVSVSPGQTARITCSGNPLPKKHTYWYQQKPGQAPVLMIYKDSERPSRIPERFSGSSSGTTVTLTISGVQAEDEADYYCQSADSTGIVVFGGGTKLTVL |  |  |  |  |  |  | 5.6 | 0.000496 | 88500 | 12.6 | 0.000352 | 27800 |
| Fab generated from 285S (Fab, V domains shown) VH: QVQLVQSGAEVKKPGSSVKVSCKASGGTFSTYAITWVRQAPGQGLEWMGRIIPILRVANYAQKFQGRVTITADSSTSTAYMELSSLRSEDTAVYYCANLLAYCGGDCRSDYWGQGTLVTVSS VL: EIVLTQSPGTLSLSPGERATLSCRASQSVKNSYLAWYHQKPGQAPRLLIYGASSRATGIPDRFSGSGSGTDFTLTISRLEPEDFAVYYCQQYGSSLWTFGQGTKVDVK |  |  |  |  |  |  | 6.11 | 0.000258 | 42200 | 18.2 | 0.000305 | 16800 |
| Fab generated from 382S (Fab, V domains shown, also called 382S Fab) VH: QVQLVQSGAEVKKPGSSVKVSCKASGGTFSNYGISWVRQAPGQGLEWMGRNIPIIGIANYAQKFQDRVTITADKSTSTVFMELRSLRYEDTAVYYCARDPLAARRGNWFDPWGQGTLVTVSS VL: DIQMTQSPSTLSASVGDRVTITCRASQSVSSWLAWYQQKPGKAPKLLIYDASTLQSGVPSRFSGSGSGTEFTLTISSLQPDDFATYYCQQYNSYSYTFGQGTKLEIK |  |  |  |  |  |  | 26 | 0.000422 | 16200 | 31.3 | 0.000452 | 14500 |
| Fab generated from 365S (Fab, V domains shown, also called 365S Fab) VH: EVQLVESGGGLVQPGGSLRLSCAASGLTFSAYEMNWVRQAPGKGLEWVSHITTSGSAIYYADSVKGRFTISRDNAKNSLHLQMNRLRADDTAVYFCARDSTIVQCSGTSCHVSTYSYMDVWGKGTTVTVSS VL: EIVLTQSPATLSLSPGERATLSCRASQSVTTYLAWYQHKPGQAPRLLIYDASKRATGIPARFSGSGSGTDFTLTISSLEPEDFAVYHCQQRSSWPPITFGQGTRLEIK |  |  |  |  |  |  | 102 | 0.00171 | 16800 | 57.7 | 0.00362 | 62800 |
| Fab generated from 102S (Fab, V domains shown) VH: EVQLVESGGGLVQPGGSLRLSCSASGFTFHSYDMNWARQAPGKGLEWVSEISSSGQSKNYADSVRGRFTISRDNAKNSLYLQINSLRSEDTAVYYCARVGFVAKFGSDFSITHGTYYLDYWGQGTLVTVSS VL: QLVLTQSPATLSLSPGERATLSCRASQSVSNYLAWYQQKPGQAPRLLIYDASNRAPGVPARFSGSGSGTDFSLTISSLEPEDFAVYYCLQRSNWPPWTFGQGTKVEIK |  |  |  |  |  |  | 91.2 | 0.00504 | 55300 |  |  |  |
| Fab generated from 578S (Fab, V domains shown, also called 578S Fab) VH: EVQLVESGGGVVQPGRSLRLSCAASGFTFSSYELHWVRQAPGKGLEWVAVISYDGSSKYYADSLKGRFTISRDNSKNTLSLQMNSLRAEDTAMYYCVRQSEAYCSDGRCDWRRALDIWGQGTMVTVSP VL: DIQMTQSPSSLSASVGDRVTITCQASQDIKNYLNWYQQKPGKAPKLLIYDVSKLETGVPSRFSGSGSGTDFSFTISSLQPEDIATYYCQQYDNLPSYTFGQGTKLEIK |  |  |  |  |  |  | 97.1 | 0.000404 | 4200 | 334 | 0.000695 | 2100 |
